According to patent US20160151511A1, “PROTEINS AND PROTEIN CONJUGATES WITH INCREASED HYDROPHOBICITY” (priority 2014, published 2016):

Key:
[1] = biological target: T1, GLP-1 receptor (Homo sapiens, UniProt P43220); assay: Cell-based GLP-1 receptor assay, intracellular calcium mobilization in CHO-K1/GLP1/Gα15 (FlexStation); conditions: Calcium-4
T1 construct: expressed in transfected cells; host or cells: CHO-K1/GLP1/Gα15
Description: The intracellular calcium change was measured by FlexStation. […] A lower EC50 indicates a higher activity.

[2] = biological target: GLP-1 receptor on CHO-K1/GLP1/Gα15 cells (UniProt P43220); assay: cell-based or functional assay
Chain of GLP-1 receptor on CHO-K1/GLP1/Gα15 cells (P43220 24-463 limits assumed): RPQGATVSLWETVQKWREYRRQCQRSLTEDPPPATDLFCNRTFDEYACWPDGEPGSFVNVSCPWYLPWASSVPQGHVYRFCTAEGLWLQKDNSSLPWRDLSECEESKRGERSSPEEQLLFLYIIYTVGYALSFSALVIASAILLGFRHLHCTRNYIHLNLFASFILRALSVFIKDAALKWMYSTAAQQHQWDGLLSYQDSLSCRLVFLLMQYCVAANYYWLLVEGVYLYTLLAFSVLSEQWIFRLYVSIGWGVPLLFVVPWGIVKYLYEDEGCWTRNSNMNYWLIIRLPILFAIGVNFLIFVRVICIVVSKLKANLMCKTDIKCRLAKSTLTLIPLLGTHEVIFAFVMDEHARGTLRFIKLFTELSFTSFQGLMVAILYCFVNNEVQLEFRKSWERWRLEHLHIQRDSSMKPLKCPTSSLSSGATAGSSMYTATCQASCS

[3] = biological target: T2, GLP-1 receptor (covalently immobilized on the Biacore biosensor surface) (UniProt P43220 24-145, limits assumed); assay: Biacore (SPR), GLP-1 receptor covalently immobilized, peptide injected
T2 construct: also called the receptor

T1 sequence (P43220 24-463, species assumed): as the sequence (P43220 24-463 limits assumed) above

“5 kDa-PEG-Cys(37)-GLP-1 (HAEGTFTSDVSSYLEGQAAKEFIAWLVKGRC)” gave an EC50 [1] of 336 nM.

B1: 5 kDa-PEG-Cys(37)-GLP-1 (peptide)
peptide: HAEGTFTSDVSSYLEGQAAKEFIAWLVKGRC
modifications: 5 kDa cysteine-reactive maleimide-PEG on the added Cys at position 37
notes: range 27-56; also called 5 kDa-PEG-GLP-1 (Cys analog); C-terminally PEGylated GLP-1
B1 gave an EC50 of intracellular calcium mobilization (Calcium-4, FlexStation RFU) [2] of 336 nM and a Kd [3] of 1600 nM.
